From PMC6420155
Positions count from the first letter of the chain named. In names and notes the source's numbering stands.

T1: M2 muscarinic acetylcholine receptor, C-terminally tagged with Renilla luciferase variant 8, P08172
T1 chain: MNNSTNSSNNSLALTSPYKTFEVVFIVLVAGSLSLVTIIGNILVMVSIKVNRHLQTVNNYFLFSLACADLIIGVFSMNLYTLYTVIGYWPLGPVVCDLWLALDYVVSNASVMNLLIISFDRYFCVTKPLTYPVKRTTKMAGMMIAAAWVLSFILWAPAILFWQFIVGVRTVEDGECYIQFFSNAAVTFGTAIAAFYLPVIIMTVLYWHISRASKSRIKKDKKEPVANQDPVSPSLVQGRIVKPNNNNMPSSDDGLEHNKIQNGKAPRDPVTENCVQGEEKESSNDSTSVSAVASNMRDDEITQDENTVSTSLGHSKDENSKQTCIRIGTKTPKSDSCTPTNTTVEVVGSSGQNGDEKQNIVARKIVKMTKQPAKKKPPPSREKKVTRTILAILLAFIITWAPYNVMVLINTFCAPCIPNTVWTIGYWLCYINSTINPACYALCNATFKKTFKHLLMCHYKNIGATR

T2: dopamine D1 receptor, C-terminally tagged with Renilla luciferase variant 8, P21728
T2 chain: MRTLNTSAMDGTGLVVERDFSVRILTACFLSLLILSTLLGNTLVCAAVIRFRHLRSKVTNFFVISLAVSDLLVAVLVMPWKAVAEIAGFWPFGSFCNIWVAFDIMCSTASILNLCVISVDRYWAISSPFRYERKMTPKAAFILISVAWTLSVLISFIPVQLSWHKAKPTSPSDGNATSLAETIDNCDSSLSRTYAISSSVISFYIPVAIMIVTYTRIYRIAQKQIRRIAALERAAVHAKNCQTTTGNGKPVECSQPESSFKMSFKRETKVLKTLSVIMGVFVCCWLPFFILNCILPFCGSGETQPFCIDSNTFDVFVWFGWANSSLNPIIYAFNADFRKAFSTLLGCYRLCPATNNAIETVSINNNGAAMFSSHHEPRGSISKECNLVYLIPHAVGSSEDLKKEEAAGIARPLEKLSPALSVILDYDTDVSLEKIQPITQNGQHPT

T3: dopamine D2 receptor (long isoform), C-terminally tagged with Renilla luciferase variant 8, P14416
T3 chain: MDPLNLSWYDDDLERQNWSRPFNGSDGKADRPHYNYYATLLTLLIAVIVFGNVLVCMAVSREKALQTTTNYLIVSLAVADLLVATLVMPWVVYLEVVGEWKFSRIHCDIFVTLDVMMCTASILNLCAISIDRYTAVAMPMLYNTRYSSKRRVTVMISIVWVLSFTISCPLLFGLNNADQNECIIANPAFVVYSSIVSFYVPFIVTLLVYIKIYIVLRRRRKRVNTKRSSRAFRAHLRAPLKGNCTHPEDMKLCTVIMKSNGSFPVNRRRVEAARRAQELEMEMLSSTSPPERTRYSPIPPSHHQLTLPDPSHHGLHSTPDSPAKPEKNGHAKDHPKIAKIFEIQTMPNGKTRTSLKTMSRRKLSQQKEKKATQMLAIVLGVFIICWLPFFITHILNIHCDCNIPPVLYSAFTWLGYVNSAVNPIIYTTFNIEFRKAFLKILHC

T4: HA-tagged dopamine D2 receptor, P14416
T4 chain: T3 chain

B1: Venus-tagged arrestin-3 A87V base mutant, P32120 G65del (protein)
chain: MGEKPGTRVFKKSSPNCKLTVYLGKRDFVDHLDKVDPVDGVVLVDPDYLKDRKVFVTLTCAFRYREDLDVLGLSFRKDLFIANYQVFPPTPNPPRPPTRLQERLLRKLGQHAHPFFFTIPQNLPCSVTLQPGPEDTGKACGVDFEIRAFCAKSLEEKSHKRNSVRLVIRKVQFAPEKPGPQPSAETTRHFLMSDRSLHLEASLDKELYYHGEPLNVNVHVTNNSTKTVKKIKVSVRQYADICLFSTAQYKCPVAQVEQDDQVSPSSTFCKVYTITPLLSNNREKRGLALDGKLKHEDTNLASSTIVKEGANKEVLGILVSYRVKVKLVVSRGGDVSVELPFVLMHPKPHDHIALPRPQSAA
B2: Venus-tagged arrestin-3 A87V base mutant, P32120 K313A (protein)
chain: MGEKPGTRVFKKSSPNCKLTVYLGKRDFVDHLDKVDPVDGVVLVDPDYLKDRKVFVTLTCAFRYGREDLDVLGLSFRKDLFIANYQVFPPTPNPPRPPTRLQERLLRKLGQHAHPFFFTIPQNLPCSVTLQPGPEDTGKACGVDFEIRAFCAKSLEEKSHKRNSVRLVIRKVQFAPEKPGPQPSAETTRHFLMSDRSLHLEASLDKELYYHGEPLNVNVHVTNNSTKTVKKIKVSVRQYADICLFSTAQYKCPVAQVEQDDQVSPSSTFCKVYTITPLLSNNREKRGLALDGKLKHEDTNLASSTIVKEGANAEVLGILVSYRVKVKLVVSRGGDVSVELPFVLMHPKPHDHIALPRPQSAA
B3: Venus-tagged arrestin-3 A87V base mutant, P32120 F245A (protein)
chain: B2 chain with F245A, A313K
B4: Venus-tagged arrestin-3 A87V base mutant, P32120 E157A (protein)
chain: B2 chain with E157A, A313K
B5: Venus-tagged arrestin-3 A87V base mutant, P32120 G65P (protein)
chain: B2 chain with G65P, A313K

Target: T1, M2 muscarinic acetylcholine receptor, …
Assay: BRET
Conditions: chain shown with the change; HEK293 arrestin 2/3 KO cells; agonist-induced minus basal BRET; average at 10 and 15 min; parent: est. 0.029; read off a plot

| response | Molecule |
| --- | --- |
| 0.019 | B1 |
| 0.032 | B2 |
| 0.031 | B3 |
| 0.026 | B4 |
| 0.023 | B5 |

Target: T2, dopamine D1 receptor, C-terminally …
Assay: BRET
Conditions: chain shown with the change; HEK293 arrestin 2/3 KO cells; agonist-induced minus basal BRET; average at 10 and 15 min; parent: est. 0.032; read off a plot

| response | Molecule |
| --- | --- |
| 0.019 | B1 |
| 0.033 | B2 |
| 0.042 | B3 |
| 0.042 | B4 |
| 0.033 | B5 |

Target: T3, dopamine D2 receptor (long isoform), …
Assay: BRET
Conditions: chain shown with the change; HEK293 arrestin 2/3 KO cells; agonist-induced minus basal BRET; average at 10 and 15 min; parent: est. 0.023; read off a plot

| response | Molecule |
| --- | --- |
| 0.025 | B2 |
| 0.027 | B3 |
| 0.023 | B4 |
| 0.019 | B5 |

Target: T4, HA-tagged dopamine D2 receptor, P14416
Assay: co-immunoprecipitation (quantified immunoblot)
Conditions: chain shown with the change; HEK293 arrestin 2/3 KO cells; 10 μM quinpirole; non-specific binding (no HA-D2R) subtracted; parent: est. 8.4; read off a plot

| response | Molecule |
| --- | --- |
| 2.7 | B1 |

These molecules were tested against dopamine D2 receptor (long isoform), C-terminally tagged with Renilla luciferase variant 8 (human) (UniProt P14416) (assay: FRET or BRET; in-cell BRET in HEK293 arrestin-2/3 KO cells co-transfected with Venus-arrestin-3 (acceptor) and receptor-RLuc8 (donor); 10 uM agonist (carbachol for M2R, isoproterenol for β2AR, dopamine for D1R, quinpirole for D2R), 5 uM coelenterazine h; net BRET (with minus without agonist), average at 10 and 15 min and time course). Conditions: not given.

| reduction of binding (net BRET) against A87V [%] | Molecule |
| --- | --- |
| 80 | Venus-tagged arrestin-3 ΔG65 (on the A87V background) (from UniProt P32120 1-362) (natural protein) |
